Experimental findings from US6383479B1, “Neutrophil-activating factor” (Novartis AG, priority 1987, dated 2002) are described below.

One data set deals with Rabbit neutrophils. Briefly: NAF-induced exocytosis in rabbit neutrophils (N-acetyl-β-glucosaminidase release). Conditions: 15 min, cytochalasin B pretreated, purified natural NAF. The data set is classed as cell-based. Here is the method:
Rabbit neutrophils are isolated from peripheral blood (obtained from the ear vein or artery) by dextran sedimentation followed by Hypaque-Ficoll density gradient centrifugation. Purified natural NAF is used.
Exocytosis conditions: 0.6×10^6 cells (in a total volume of 0.15 ml) pretreated with cytochalasin B for 5 min at 37° are stimulated with NAF (0.1-100 nM) or fMLP (100 nM) for 15 min. N-acetyl-β-glucosaminidase, an azurophil granule marker, is determined in the cell-free medium.

Data set [1] deals with New Zealand albino rabbits. Kind of data set: neutrophil accumulation and plasma leakage in rabbit skin after intradermal injection. Type of data set: in vivo. An excerpt:
Inflammatory responses are examined in the skin of conscious 2.0 to 2.5 kg New Zealand albino rabbits. Erythrocytes in blood from donor rabbits are sedimented with hydroxyethyl cellulose (Polysciences, Warrington, Pa.) and neutrophils in the resultant leucocyte-rich plasma are purified (>94% neutrophils) by density gradient centrifugation on Percoll (Pharmacia, Uppsala, Sweden). Cells are resuspended in Ca^2+ and Mg^2+—free Tyrode's solution containing 10% platelet poor plasma to a concentration of 10^6 leukocytes/ml and labeled for 15 min at room temperature with 40 μCi ^111indium-oxine (Amersham) per 10^6 cells. The labeled cells are washed by centrifugation through 10% platelet-poor plasma and approximately 10^6 cells per recipient are mixed with 10 μCi ^125iodine-labeled human serum albumin (Amersham) and injected intravenously through the lateral ear vein of rabbits with inflammatory lesions under study. Intradermal injections of inflammatory agents are then made and animals are killed 2 h later in studies with actinomycin D and polymyxin B, and 4 h later in dose-response experiments. Midway through the period that radiolabeled cells are in circulation, a blood sample is collected and the specific activities of neutrophils and plasma in blood are determined. Radioactivity in inflammatory lesions at the end of each experiment are determined in a multichannel gamma counter, the activity in control skin sites is subtracted and the absolute number of neutrophils and volume of plasma accumulating in inflammatory lesions are calculated from the specific activities. Neutrophil numbers in inflammatory lesions are standardised between animals by expressing the results as cell number per 10^6 neutrophils circulating per ml peripheral blood, according to the method of Cybulsky et al., Am. J. Pathol. 124 [1986] 367.
Recombinant NAF obtained as described under Example 19 is dissolved at 400 μg/ml in minimal essential medium (50 mM) plus 0.45 M NaCl (pH 6.5). Endotoxin (E. coli serotype 055:B5, Sigma, St. Louis, Mo.) is dissolved in pyrogen-free normal saline. fMLP is dissolved in dimethyl sulphoxide at 10^−2 M and diluted to working concentrations in PFS. Polymyxin B and actinomycin D are dissolved in 1 ml ethanol and diluted 20 fold by mixing with NAF, endotoxin or fMLP in PFS. In studies on inhibition of inflammatory responses 40 μg polymyxin B and 10^−7 moles actinomycin D are injected per skin site with […] endotoxin. In all experiments 0.2 ml of inflammatory agents are injected intradermally per site through 26 gauge needles, with 5 replicates of each treatment in each animal.

Data set [2] is described as follows: resistance of NAF activity to heat, pH, denaturing agents and proteases. The data set is classed as physicochemical. As for the experimental part: Partially purified NAF obtained upon phosphocellulose chromatography (Example 4) is used in these experiments. Following phosphocellulose chromatography, fractions with the highest NAF activity are dialysed overnight at 4° against PBS using a membrane with a molecular weight cut-off of 1000 daltons. The preparation obtained is then subjected to the following treatments: a) incubation at 37° with and without trypsin, chymotrypsin or proteinase K (100 μg/ml) followed by the addition of an excess of BSA (2 mg/ml) to stop NAF proteolysis; b) heating to 56°, 80° or 95° (as compared to 22° for control); c) exposure to pH 2 or 10 (at 22°) followed by adjustment to pH 7.4 (as compared to pH 7.4 for control); d) exposure to 2 M lithium chloride, 6 M guanidinium chloride, 1% 2-mercaptoethanol or 0.5% sodium dodecyl sulfate (SDS) for 3 h at 22°, followed by dialysis for 24 h at 4° against PBS. When additions are made, samples without NAF are handled in the same way and tested for possible influence on the NAF assay.

Data set [3] relates to mouse, rat and guinea pig. Briefly: preliminary tests of NAF activity in mouse, rat and guinea pig. From the text:
The biological properties of NAF are species-specific. Activity in the rabbit most closely mirrors activity in humans.

A short description of data set [4]: isoelectric point (chromatofocusing). The data set is classed as physicochemical. Here is the method: A sample of 4 ml of NAF partially purified by phosphocellulose chromatography (Example 4) is dialyzed against start buffer consisting of 25 mM ethanolamine-HCl, pH 9.4 and 0.1% polyethylene glycol 6000, and loaded onto a PBE 94 column (0.7×19 cm, Pharmacia) equilibrated with the same buffer. The column is then eluted with 200 ml of polybuffer 96-HCl (diluted 1:10 with water), pH 7.0, containing 0.1% polyethylene glycol 6000. 10-minute fractions are collected at a flow rate of 10-14 ml/h and assayed for NAF activity. Most of the activity elutes in the region of pH 8.5 to pH 8.8 (FIG. 9).

Setting [5] is: recombinant NAF intradermal, 10^−11 to 10^−9 moles per site, 4 h.

In the case of neutrophil-activating factor [NAF], the N-acetyl-β-glucosaminidase in the data set on Rabbit neutrophils (stimulus 0.1 nM) is given as 53 pmol/min; with Rabbit neutrophils (stimulus 1.0 nM), 99 pmol/min; in the data set on Rabbit neutrophils (stimulus 10.0 nM) it was 139 pmol/min; with Rabbit neutrophils (stimulus 100.0 nM), 157 pmol/min. The “molar potency relative to C5a and LTB” value in data set [1] (in vivo, rabbit skin) is reported as “comparable”. Moreover, the “neutrophil accumulation in skin sites” value in data set [1] (setting [5]) was “dose-dependent increase”. The “plasma leakage into skin sites” value in data set [1] (setting [5]) is reported as “dose-dependent increase”. Further, the Relative activity in data set [2] (2-mercaptoethanol 1.0%, 22°, 3 h) worked out at 30; in data set [2] (SDS 0.5%, 22°, 3 h), 100; in data set [2] (Temperature 22°, 3 h (control)), 100; in data set [2] (Temperature 56°, 1 h), 82; in data set [2] (Temperature 80°, 15 min), 80; in data set [2] (Temperature 95°, 5 min) it was 66. Further, the Relative activity turned out to be 68 in data set [2] (guanidinium chloride 6M, 22°, 3 h); 52 in data set [2] (lithium chloride 2M, 22°, 3 h); 76 in data set [2] (pH 2.0, 22°, 3 h); 90 in data set [2] (pH 10.0, 22°, 3 h); 0 in data set [2] (proteinase K 100 μg/ml, 37°, 12 h); 100 in data set [2] (trypsin 100 μg/ml, 37°, 4 h). The Relative activity in data set [2] (trypsin 100 μg/ml, 37°, 12 h) is on record as 8; in data set [2] (α-chymotrypsin 100 μg/ml, 37°, 4 h), 80; in data set [2] (α-chymotrypsin 100 μg/ml, 37°, 12 h), 1. Besides, the “activity in the mouse, rat and guinea pig” value in data set [3] was “not shown any clear activity”. Besides, the isoelectric point result in data set [4] is recorded as “approximately 8.6”.
